Data from IntAct's records for PubMed 20126385.

B1: Adenomatous polyposis coli protein-related protein 1 (Caenorhabditis elegans), Q21227-1 (parent)
chain: MSSSSSDENETTIHRTGSNTGGSGIYSQPRAGSSKRTSNVRHDVSDVDDEEEHYARFREDTAIEVDDAITVLLSSLHFEHKRDIVPTDEDDNKLRELHEKIFALITSESDVNRKRRLKKALPASNCVREQVYYLRRKPSTPPASYYHRLNAALHTIVKESFGEEYRKVATVLGLVEALAEVLILEVHTFGINETNPGEHRNIRKLIANALTNLTYGQIHSKRRLCSYDGFIRCVVRIVIESPNITQVYAGLIRNLSWNADSGMSEALQPTVHALSIAAVHAHTHRFDVTATLSALWNLAGHSVENKRTICDTPNCLKVLASLLSPDARFTSLVDSATGILKYVSQYLANTSTHLELRSLLITRMLTLLKSASFTCVTNTLGAIANLIVKDPHMQQMIRQDMAAVQQLNVLRNSNRDDIRTAVKSVLNTLNQPCSHRYGDMSHSVGGGATGMQMLSEPQLQMQTSHHAYHGTASPRLLSLRATRASPGKYIQPQAQQQLIQTPQVDQRSSSLPRHFAVQRNGFVMAQSYNQQMDQHQQQQMIYQLQQQQQIMFQTEDQAQMEHHQQIMYLQQQQQQFHQIQQQQQMQKAQEADPVPPTDDDLDIPTSTVMGTRSNSERSLGSMNPGSVMTNWNSSLDTAANSSRALSPVSYNDIPASPTMCAQVFNLPKSTESEHHQLTSQQQNTTHYSSGSANTMTRSDGATTVPMDNIITPTYAILNPILVHEQTPNGTVPRKTSEELDSPDDVLPGPSLEEEEGDYAIIGGAAQKTDDELLTRSIQSEMPTSSSTPKMKVSPRLNGFFSPTQKTTSSPAWSHPDTSPIPKSSSHRTQPNRRQDASDADRLLMESIMSEMPKSRIISPRLAGTQQYLEPEPERRSHSKNEEADRRDAFTASHEPSDHNGIDVARGSDWSPQQQLHRMESLESQASSEDSFGLTAEEPNSSTSGAAANTMRFDDEIDASLPMDCVDDDDYDYTYDHFEDYEDEEDPDATQFDDGVDAQLTIDCSMISSGSGSSQRNETTTTSRDSKALATSTPKGSASSLPGVRQATRVSTNGKSRLPVPKTNGSLVDKNPKPIIASRRPRLPPKPTLLKDKHYPEEDSIENQTRDDTIYVNAPVVEAEQERIYMNALKQQKNIEQSPSIGNGSPIAKSAIVTPYNYQKPPFTGRNNGEMSNEKSVTPNPKQMLVTIV
partner: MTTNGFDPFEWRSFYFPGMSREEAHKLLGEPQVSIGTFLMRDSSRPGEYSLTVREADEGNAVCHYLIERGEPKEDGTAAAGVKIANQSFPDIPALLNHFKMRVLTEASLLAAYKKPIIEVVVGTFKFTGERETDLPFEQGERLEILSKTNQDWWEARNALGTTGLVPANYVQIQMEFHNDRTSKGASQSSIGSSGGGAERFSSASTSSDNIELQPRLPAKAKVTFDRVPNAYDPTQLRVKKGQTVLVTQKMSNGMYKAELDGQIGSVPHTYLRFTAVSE

Variants of: B1
Conditions: with ced2_caeel ced-2, Q9NHC3

Row | Variant | effect of a mutation on the interaction
1 | Y489A | decreasing interaction
